Reference: patent US20180010117

Tests used:
Experiment in all cases: cell_activity
[1] = test system: ZFN SBS#61033 (engineered); settings: paired with 61029, K562, 800 ng RNA each; 76.9 at 200 ng; with 61028 73.5
[2] = test system: ZFN SBS#61035 (engineered); settings: paired with 61029, K562, 800 ng RNA each; 63.6 at 200 ng; with 61028 68.7
[3] = test system: ZFN SBS#61041 (engineered); settings: paired with 61036, K562, 800 ng RNA each; 14.5 at 200 ng; with 61034 30.1
[4] = test system: ZFN SBS#61042 (engineered); settings: paired with 61036, K562, 800 ng RNA each; 12.9 at 200 ng; with 61034 26.1
[5] = test system: ZFN SBS#61034 (engineered); settings: paired with 61041, K562, 800 ng RNA each; 9.6 at 200 ng; with 61042 26.1
[6] = test system: ZFN SBS#61036 (engineered); settings: paired with 61041, K562, 800 ng RNA each; 14.5 at 200 ng; with 61042 40.6
[7] = test system: ZFN SBS#61027 (engineered); settings: paired with 61024, K562, 800 ng RNA each; 4.5 at 200 ng
[8] = test system: ZFN SBS#61028 (engineered); settings: paired with 61033, K562, 800 ng RNA each; 54.3 at 200 ng; with 61035 68.7
[9] = test system: ZFN SBS#61029 (engineered); settings: paired with 61033, K562, 800 ng RNA each; 76.9 at 200 ng; with 61035 80.7

Sequence: CCAATAGGGATAGGTATGAGATATTCAC (double strand) [CEP290 site of 61033/61035]
- activity [1]: 85.4 % indels
- activity [2]: 80.7 % indels

Sequence: CCAATAGGGATAGGTATGAGATATTCAC (double strand) [CEP290 site of 61041/61042]
- activity [3]: 43.6 % indels
- activity [4]: 40.6 % indels

Sequence: CCCCAGTTGTAATTGTGAATATCTCATA (double strand) [CEP290 site of 61034/61036]
- activity [5]: 30.1 % indels
- activity [6]: 43.6 % indels

Sequence: TAGGGATAGGTATGAGATATTCACAATT (double strand) [CEP290 site of 61027]
- activity [7]: 27.1 % indels

Sequence: TGGCCCCAGTTGTAATTGTGAATATCTC (double strand) [CEP290 site of 61028/61029]
- activity [8]: 73.5 % indels
- activity [9]: 85.4 % indels
